Source: US20260002156

Target: T1, fluorogenic peptide substrate to ADAM10 (Mca-PLAQAV-Dpa-RSSR)
T1 chain: PLAQAVXRSSR

B1: recombinant human ADAM10 (rhADAM10) (protein)
chain: TTSAEKNTCQLYIQTDHLFFKYYGTREAVIAQISSHVKAIDTIYQTTDFSGIRNISFMVKRIRINTTADEKDPTNPFRFPNIGVEKFLELNSEQNHDDYCLAYVFTDRDFDDGVLGLAWVGAPSGSSGGICEKSKLYSDGKKKSLNTGIITVQNYGSHVPPKVSHITFAHEVGHNFGSPHDSGTECTPGESKNLGQKENGNYIMYARATSGDKLNNNKFSLCSIRNISQVLEKKRNNCFVESGQPICGNGMVEQGEECDCGYSDQCKDECCFDANQPEGRKCKLKPGKQCSPSQGPCCTAQCAFKSKSEKCRDDSDCAREGICNGFTALCPASDPKPNFTDCNRHTQVCINGQCAGSICEKYGLEECTCASSDGKDDKELCHVCCMKKMDPSTCASTGSVQWSRHFSGRTITLQPGSPCNDFRGYCDVFMRCRLVDADGPLARLKKAIFSPELYENIAE
  fluorescence intensity (fluorogenic peptide cleavage assay): the recombinant human ADAM10 (rhADAM10) which serves as a positive control

B2: ADAM10 on the surface of HCC cells (HepG2) (protein)
chain: TTSAEKNTCQLYIQTDHLFFKYYGTREAVIAQISSHVKAIDTIYQTTDFSGIRNISFMVKRIRINTTADEKDPTNPFRFPNIGVEKFLELNSEQNHDDYCLAYVFTDRDFDDGVLGLAWVGAPSGSSGGICEKSKLYSDGKKKSLNTGIITVQNYGSHVPPKVSHITFAHEVGHNFGSPHDSGTECTPGESKNLGQKENGNYIMYARATSGDKLNNNKFSLCSIRNISQVLEKKRNNCFVESGQPICGNGMVEQGEECDCGYSDQCKDECCFDANQPEGRKCKLKPGKQCSPSQGPCCTAQCAFKSKSEKCRDDSDCAREGICNGFTALCPASDPKPNFTDCNRHTQVCINGQCAGSICEKYGLEECTCASSDGKDDKELCHVCCMKKMDPSTCASTGSVQWSRHFSGRTITLQPGSPCNDFRGYCDVFMRCRLVDADGPLARLKKAIFSPELYENIAEWIVAHWWAVLLMGIALIMLMAGFIKICSVHTPSSNPKLPPPKPLPGTLKRRRPPQPIQQPQRQRPRESYQMGHMRR
  fluorescence intensity (fluorogenic peptide cleavage assay): after incubation with HCC cells, the fluorogenic peptide significantly increased the fluorescence intensity, stronger than the recombinant human ADAM10 (rhADAM10) which serves as a positive control
